What was measured:
[1] = Absorption spectra, spin shift upon incubation with substrate; type: binding; details: 3 uM purified P450; incubation with ethane or octane
Description: The absorption spectra for 53-5H and 35-E11 were taken using a 3 uM solution of purified P450 in a quartz cuvette. Upon incubation with ethane, no shift in equilibrium from low- (Amax at 418 nm) to high-spin (Amax at 390 nm) configuration of the ferric P450 was observed.

[2] = Ethane hydroxylation to ethanol (rate, total turnover); type: biochemical
Description: Ethane hydroxylation by 53-5H was measured after 12-hour incubations of the enzyme in ethane-saturated buffer containing an ethanol-free NADPH regeneration system (commercial NADPH contains 2-3% ethanol). While the reaction is uncoupled to NADPH oxidation in the presence of ethane (660 min-1, see Table 2), 53-5H nevertheless consistently produces at least 50 equivalents of ethanol independent of the starting concentration of enzyme (see FIGS. 2 and 3). Over oxidation was tested by supplying ethanol as a substrate and monitoring ethanol depletion by gas chromatography and the production of acetaldehyde and acetic acid by ^13C NMR using ^13C-labeled ethanol. No (i.e. less than 10%, the detection limit of these experiments) over oxidation products were detected in these experiments (see FIG. 4). In general, the hydrophobic active sites in P450s assist in the release of singly-hydroxylated products.
Reactions on ethane were carried out similarly to those described for propane (Peters et al., J. Am. Chem. Soc. 125:13442 (2003); incorporated by reference herein). Because commercially-available NADPH contains 2-3% ethanol, an NADPH regeneration system was used. Thereby, the background ethanol concentration was reduced to approximately 1 μM. Ethane hydroxylation reactions were performed in 20 mL glass vials. A 5.0 mL reaction mixture contained 100, 200 or 500 nM purified protein in 0.1 M potassium phosphate buffer (pH 8.0) saturated with ethane and dioxygen. […] The vial was immediately topped with a septum, pressurized with 20 psi of ethane and stirred at 25° C. For determination of total turnover, the reaction was allowed to proceed for four hours. For rate determination the reaction was stopped at 0, 15 and 30 min. 50 μL of 5 mM 1-butanol was added to the reaction mixture as an internal standard. Ethanol and 1-butanol were subsequently derivatized to their corresponding alkyl nitrites. Control reactions were performed by repeating these steps without substrate and with inactivated protein, to correct for background levels of ethanol. […] Reactions with ethane and corresponding control reactions without ethane or with inactivated protein were carried out in triplicate. […]
Rates of ethanol formation were measured over 30 min using gas chromatography (GC) coupled to an electron capture detector (ECD) and are reported as nmol ethanol/min/nmol enzyme. […] Total turnover number (ttn) was measured using GC after completion of the reaction and is reported as nmol product/nmol protein. […] Initial rates of propanol and octanol formation were measured over 1 min by GC and are reported as nmol product/min/nmol protein. […] The “ee” of 2-octanol (main product) was measured by GC; the favored enantiomer is listed in parenthesis. […]

[3] = NADPH oxidation rates and coupling for propane hydroxylation (Example 4); type: biochemical; details: propanol formation rate/NADPH oxidation rate
Description: Determination of NADPH oxidation rates. Initial rates of NADPH oxidation were measured using propane-saturated 100 mM KPi pH 8.0 buffer, purified enzyme at 50-200 nM, and a saturating concentration of NADPH (200 μM). The absorbance decrease at 340 nm was monitored at 25° C. in a BioSpec-1601 UV/VIS spectrophotometer (Shimadzu, Columbia, MD) for 1 min. Rates were calculated over the first 20 seconds using NADPH extinction coefficient ε340=6210 M^−1 cm^−1. Rates were determined in triplicate. Coupling values were calculated from the ratio of propanol formation rate to NADPH oxidation rate in the presence of propane.

[4] = palmitic acid; cited from earlier work

B1: 35-E11: P450 BM-3 variant, SEQ ID NO:7: 53-5H substitutions plus E464G and I710T (protein)
chain: TIKEMPQPKTFGELKNLPLLNTDKPVQALMKIADELGEIFKFEAPGCVTRYLSSQRLIKEACDESRFDKNLSQALKFFRDFSGDGLFTSWTHEINWKKAHNILLPSFSQQAMKGYHAMMVDIAVQLVQKWERLNADEHIEVSEDMTRLTLDTIGLCGFNYRFNSFYRDQPHPFIISMVRALDEVMNKLQRANPDDPAYDENKRQCQEDIKVMNDLVDKIIADRKARGEQSDDLLTQMLNGKDPETGEPLDDGNISYQIITFLIAGHETTSGLLSFALYFLVKNPHVLQKVVEEAARVLVDPVPSYKQVKQLKYVGMVLNEALRLWPTFPAFSLYAKEDTVLGGEYPLEKGDEVMVLIPQLHRDKTIWGDDVEEFRPERFENPSAIPQHAFKPFGNGQRACIGQQFALHEATLVLGMMLKHFDFEDHTNYELDIKETLTLKPEGFVVKAKSKKIPLGGIPSPSTGQSAKKVRKKAENAHNTPLLVLYGSNMGTAEGTARDLADIAMSKGFAPQVATLDSHAGNLPREGAVLIVTASYNGHPPDNAKQFVDWLDQASADEVKGVRYSVFGCGDKNWATTYQKVPAFIDETLAAKGAENIADRGEADASDDFEGTYEEWREHMWSDVAAYFNLDIENSEDNKSTLSLQFVDSAADMPLAKMHGAFSTNVVASKELQQPGSARSTRHLEIELPKEASYQEGDHLGVIPRNYEGTVNRVTARFGLDASQQIRLEAEEEKLAHLPLAKTVSVEELLQYVELQDPVTRTQLRAMAAKTVCPPHKVELEALLEKQAYKEQVLAKRLTMLELLEKYPACEMKFSEFIALLPSIRPRYYSISSSPRVDEKQASITVSVVSGEAWSGYGEYKGIASNYLAELQEGDTITCFISTPQSEFTLPKDPETPLIMVGPGTGVAPFRGFVQARKQLKEQGQSLGEAHLYFGCRSPHEDYLYQEELENAQSEGIITLHTAFSRMPNQPKTYVQHVMEQDGKKLIELLDQGAHFYICGDGSQMAPAVEATLMKSYADVHQVSEADARLWLQQLEEKGRYAKDVWAG
modifications: mutant P450 35-E11 protein sequence
- shift from low- to high-spin ferric P450 [1]: behaved identically
- ethanol produced ([2]; 200 nM of mutant, typical reaction with ethane): over 50 μM
- Ethane ttn ([2]; after completion of the reaction): 250 nmol product/nmol protein
- increase in total turnover of ethane to ethanol ([2]; compared to 53-5H): five-fold
- Ethane Rate ([2]; ethanol formation over 30 min, GC-ECD, dash = no activity): 0.4 nmol ethanol/min/nmol enzyme

B2: P450PMO: P450 BM-3 variant, SEQ ID NO:125; 7-7 plus G443A and D698G; propane monooxygenase (protein)
chain: TIKEMPQPKTFGELKNLPLLNTDKPVQALMKIADELGEIFKFEAPGCVTRYISSQRLIKEACDESRFDKNLSQELKFFRDFGGDGLFTSWTHEINWKKAHNILLPSFSQQAMKGYHAMMVDIAVQLVQKWERLNADEHIEVSEDMTRLTLDTIGLCGFNYRFNSFYRDQPHPFIISMVRALDEVMNKPQRANPDDPAYDENKRQCQEDIKVMNDLVDKIIADRKARGEQSDDLLTQMLNGKDPETGEPLDDGNISYQIITFLIAGHETTSGLLSFALYFLVKNPHVLQKVVEEAARVLVDPVPSYKQVKQLKYVGMVLNEALRLWPTFPAFSLYAKEDTVLGGEYPLEKGDEVMVLIPQLHRDKTVWGDDVEEFRPERFENPSAIPQHAFKPFGNGQRACIGQQFALHEATLVLGMMLKHFDFEDHTNYELDIKETLTLKPEAFVVKAKSKKIPLGGIPSPSTGQSAKKVRKKAENAHNTPLLVLYGSNMGTAEGTARDLADIAMSKGFAPQVATLDSHAGNLPREGAVLIVTASYNGHPPDNAKQFVDWLDQASADEVKGVRYSVFGCGDKNWATTYQKVPAFIDETLAAKGAENIADRGEADASDDFEGTYEEWREHMWSDVAAYFNLDIENSEDNKSTLSLQFVDSAADMPLAKMHGAFSTNVVASKELQQPGSARSTRHLEIELPKEASYQEGGHLGVIPRNYEGTVNRVTARFGLDASQQIRLEAEEEKLAHLPLAKTVSVEELLQYVELQDPVTRTQLRAMAAKTVCPPHKVELEALLEKQAYKEQVLAKRLTMLELLEKYPACEMKFSEFIALLPSIRPRYYSISSSPRVDEKQASITVSVVSGEAWSGYGEYKGIASNYLAELQEGDTITCFISTPQSEFTLPKDPETPLIMVGPGTGVAPFRGFVQARKQLKEQGQSLGEAHLYFGCRSPHEDYLYQEELENAQSEGIITLHTAFSRMPNQPKTYVQHVMEQDGKKLIELLDQGAHFYICGDGSQMAPAVEATLMKSYADVHQVSEADARLWLQQLEEKGRYAKDVWAG
modifications: Mutant P450PMO protein sequence
notes: 7-7 plus G443A and D698G; propane monooxygenase
- coupling efficiency for propane hydroxylation [3]: 90%

B3: Wild-type BM-3: wild-type cytochrome P450 BM-3 from Bacillus megaterium, SEQ ID NO:1 (protein, listed as Bacillus megaterium)
chain: TIKEMPQPKTFGELKNLPLLNTDKPVQALMKIADELGEIFKFEAPGRVTRYLSSQRLIKEACDESRFDKNLSQALKFVRDFAGDGLFTSWTHEKNWKKAHNILLPSFSQQAMKGYHAMMVDIAVQLVQKWERLNADEHIEVPEDMTRLTLDTIGLCGFNYRFNSFYRDQPHPFITSMVRALDEAMNKLQRANPDDPAYDENKRQFQEDIKVMNDLVDKIIADRKASGEQSDDLLTHMLNGKDPETGEPLDDENIRYQIITFLIAGHETTSGLLSFALYFLVKNPHVLQKAAEEAARVLVDPVPSYKQVKQLKYVGMVLNEALRLWPTAPAFSLYAKEDTVLGGEYPLEKGDELMVLIPQLHRDKTIWGDDVEEFRPERFENPSAIPQHAFKPFGNGQRACIGQQFALHEATLVLGMMLKHFDFEDHTNYELDIKETLTLKPEGFVVKAKSKKIPLGGIPSPSTEQSAKKVRKKAENAHNTPLLVLYGSNMGTAEGTARDLADIAMSKGFAPQVATLDSHAGNLPREGAVLIVTASYNGHPPDNAKQFVDWLDQASADEVKGVRYSVFGCGDKNWATTYQKVPAFIDETLAAKGAENIADRGEADASDDFEGTYEEWREHMWSDVAAYFNLDIENSEDNKSTLSLQFVDSAADMPLAKMHGAFSTNVVASKELQQPGSARSTRHLEIELPKEASYQEGDHLGVIPRNYEGIVNRVTARFGLDASQQIRLEAEEEKLAHLPLAKTVSVEELLQYVELQDPVTRTQLRAMAAKTVCPPHKVELEALLEKQAYKEQVLAKRLTMLELLEKYPACEMKFSEFIALLPSIRPRYYSISSSPRVDEKQASITVSVVSGEAWSGYGEYKGIASNYLAELQEGDTITCFISTPQSEFTLPKDPETPLIMVGPGTGVAPFRGFVQARKQLKEQGQSLGEAHLYFGCRSPHEDYLYQEELENAQSEGIITLHTAFSRMPNQPKTYVQHVMEQDGKKLIELLDQGAHFYICGDGSQMAPAVEATLMKSYADVHQVSEADARLWLQQLEEKGRYAKDVWAG
- hydroxylation at the ω-2 position [4]: 48%
